# Patent US20240270825A1 (CENTIVAX, published 2024)
# Positions count from the first letter of the chain named.
# T1: MERS Receptor Binding Domain (RBD) protein (Middle East Respiratory Syndrome (MERS) …, UniProt K9N5Q8 367-606)
# T1 construct: also called Middle East Respiratory Syndrome (MERS) virus
# T1 sequence: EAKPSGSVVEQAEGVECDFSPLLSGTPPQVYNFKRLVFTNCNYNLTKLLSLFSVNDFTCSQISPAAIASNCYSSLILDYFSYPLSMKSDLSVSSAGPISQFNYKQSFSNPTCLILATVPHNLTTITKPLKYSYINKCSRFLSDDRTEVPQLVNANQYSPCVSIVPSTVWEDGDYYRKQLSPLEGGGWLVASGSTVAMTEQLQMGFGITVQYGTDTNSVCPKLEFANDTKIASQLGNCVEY
# B1: COVID19_P21_F11 (scFv, V domains shown)
# VH: QVQLVQSGAEVKKPGSSVKVSCKASGGTFSSYAISWVRQAPGQGLEWMGIIYPGDSTARYSQKFQGRVTITADESTSTAYMELSSLRSEDTAVYYCAGGSGISTLYDVWGQGTLVTVSS
# VL: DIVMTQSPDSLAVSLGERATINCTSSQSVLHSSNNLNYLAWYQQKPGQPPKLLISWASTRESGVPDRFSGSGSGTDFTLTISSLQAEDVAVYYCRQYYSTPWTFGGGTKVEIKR
# B2: COVID19_P22_F07 (scFv, V domains shown)
# VH: QVQLVQSGAEVKKPGSSVKVSCKASGGTFSSYAISWVRQAPGQGLEWMGGIIPIFGSTASYAQKFQGRVTITADESTSTAYMELSSLRSEDTAVYYCAGEWGISTPMDVWGQGTLVTVSS
# VL: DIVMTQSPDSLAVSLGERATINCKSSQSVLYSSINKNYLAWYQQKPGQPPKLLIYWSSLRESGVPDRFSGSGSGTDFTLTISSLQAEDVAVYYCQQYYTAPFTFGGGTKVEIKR
# B3: COVID19_P09_C09 (scFv, V domains shown)
# VH: QVQLVQSGAEVKKPGSSVKVSCKASGGTFSSYAISWVRQAPGQGLEWMGIIDPSGGSTSYAQQFQGRVTITADESTSTAYMELSSLRSEDTAVYYCAGGSGISTPMDVWGQGTLVTVSS
# VL: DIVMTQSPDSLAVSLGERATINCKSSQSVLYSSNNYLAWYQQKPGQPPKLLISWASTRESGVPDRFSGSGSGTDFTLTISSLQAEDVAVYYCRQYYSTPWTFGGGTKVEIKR
# B4: COVID19_P21_F08 (scFv, V domains shown)
# VH: QVQLVQSGAEVKKPGSSVKVSCKASGGTFSTYAFNWVRQAPGQGLEWMGVINTGGGSVTYAQKFQGRVTITADESTSTAYMELSSLRSEDTAVYYCAGGSGISTPGAVWGQGTLVTVSS
# VL: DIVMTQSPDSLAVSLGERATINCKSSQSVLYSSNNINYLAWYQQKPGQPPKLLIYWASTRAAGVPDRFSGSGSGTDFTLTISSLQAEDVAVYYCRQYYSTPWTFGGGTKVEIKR
# B5: COVID19_P21_E12 (scFv, V domains shown)
# VH: QVQLVQSGAEVKKPGSSVKVSCKASGGTFISYAISWVRQAPGQGLEWMGGIIPTLGTYNYAQKFQGRVTITADESTSTAYMELSSLRSEDTAVYYCAGSWGISTPMDVWGQGTLVTVSS
# VL: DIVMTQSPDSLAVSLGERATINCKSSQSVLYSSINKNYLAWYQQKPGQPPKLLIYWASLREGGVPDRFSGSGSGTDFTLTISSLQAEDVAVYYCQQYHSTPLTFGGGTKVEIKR
# B6: COVID19_P22_E12 (scFv, V domains shown)
# VH: B5 VH with I30S, S35N, T54V, G56H, Y58V, N59D, K63R, F64L, S99E
# VL: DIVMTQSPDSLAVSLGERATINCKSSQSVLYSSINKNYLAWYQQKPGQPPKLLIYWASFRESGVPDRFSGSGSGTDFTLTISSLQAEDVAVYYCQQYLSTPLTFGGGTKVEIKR
# B7: COVID19_P21_B08 (scFv, V domains shown)
# VH: B4 VH with T31S, F34I, N35S, G99H, S100W, G106M, A107D
# VL: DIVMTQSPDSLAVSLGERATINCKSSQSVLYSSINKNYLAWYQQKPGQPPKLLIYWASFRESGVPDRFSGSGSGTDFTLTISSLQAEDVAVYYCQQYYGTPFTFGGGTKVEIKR
# B8: COVID19_P21_A12 (scFv, V domains shown)
# VH: B5 VH with I30S, G50S, I51V, T54V, L55F, T57R, Y58P, S99E
# VL: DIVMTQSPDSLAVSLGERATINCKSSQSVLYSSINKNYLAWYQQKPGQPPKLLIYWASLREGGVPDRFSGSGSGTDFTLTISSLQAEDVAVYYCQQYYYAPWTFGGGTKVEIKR
# B9: COVID19_P21_F04 (scFv, V domains shown)
# VH: B3 VH with I50Q, D52N, G56D, S59R, Q63K
# VL: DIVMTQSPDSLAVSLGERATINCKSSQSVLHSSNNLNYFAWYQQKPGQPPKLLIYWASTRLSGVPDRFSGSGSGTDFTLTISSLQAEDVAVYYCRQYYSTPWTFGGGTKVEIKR
# B10: COVID19_P22_B12 (scFv, V domains shown)
# VH: B1 VH with F29L, T57E, A58T, L105P, Y106R, D107S
# VL: DIVMTQSPDSLAVSLGERATINCKSSRILSYSPDNKNYLAWYQQKPGQPPKLLIYWASTRESGVPDRFSGSGSGTDFTLTISSLQAEDVAVYYCQQSYITPYTFGGGTKVEIKR
# B11: COVID19_P09_E11 (scFv, V domains shown)
# VH: B1 VH with S31N, Y32H, P41Y, S56G, A58T, L105P, Y106M
# VL: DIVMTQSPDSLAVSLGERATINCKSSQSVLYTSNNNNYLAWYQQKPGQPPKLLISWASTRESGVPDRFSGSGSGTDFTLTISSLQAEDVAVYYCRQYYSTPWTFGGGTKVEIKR
# Molecular target: SARS-CoV-2 Receptor Binding Domain (RBD) protein (SARS-CoV-2, UniProt P0DTC2 319-541)
# Assay: SPR Carterra LSA, scFv captured via anti-V5, 1:1 fit
Binder,Kd,koff
B1,1.1 nM,5.7e-05 s⁻¹

# Molecular target: T2, SARS-CoV-1 Receptor Binding Domain (RBD) protein (SARS-CoV-1, UniProt P59594 306-527)
# T2 construct: also called SARS1
# Assay: SPR Carterra LSA, scFv captured via anti-V5
row,Binder,binding result
1,B2,no binding (tested: 300 nM)
2,B3,no binding (tested: 300 nM)
3,B4,no binding (tested: 300 nM)
4,B5,no binding (tested: 300 nM)
5,B6,no binding (tested: 300 nM)
6,B7,no binding (tested: 300 nM)
7,B8,no binding (tested: 300 nM)
8,B1,no binding (tested: 300 nM)
9,B9,no binding (tested: 300 nM)
10,B10,no binding (tested: 300 nM)
11,B11,no binding (tested: 300 nM)

# Molecular target: T1, MERS Receptor Binding Domain (RBD) …
# Assay: SPR Carterra LSA, scFv captured via anti-V5
row,Binder,binding result
1,B2,no binding (tested: 300 nM)
2,B3,no binding (tested: 300 nM)
3,B4,no binding (tested: 300 nM)
4,B5,no binding (tested: 300 nM)
5,B6,no binding (tested: 300 nM)
6,B7,no binding (tested: 300 nM)
7,B8,no binding (tested: 300 nM)
8,B1,no binding (tested: 300 nM)
9,B9,no binding (tested: 300 nM)
10,B10,no binding (tested: 300 nM)
11,B11,no binding (tested: 300 nM)
